Data on 17 molecules can be found in patent publication US20160046943, “Interferon Production Using Short RNA Duplexes” (YALE UNIVERSITY, published 2016).

Read-outs that look alike come from different tables or passages of the source.

Data set [1] addresses T1, RIG-I (full length) (Homo sapiens, UniProt O95786 O95786:1-925).
T1 sequence: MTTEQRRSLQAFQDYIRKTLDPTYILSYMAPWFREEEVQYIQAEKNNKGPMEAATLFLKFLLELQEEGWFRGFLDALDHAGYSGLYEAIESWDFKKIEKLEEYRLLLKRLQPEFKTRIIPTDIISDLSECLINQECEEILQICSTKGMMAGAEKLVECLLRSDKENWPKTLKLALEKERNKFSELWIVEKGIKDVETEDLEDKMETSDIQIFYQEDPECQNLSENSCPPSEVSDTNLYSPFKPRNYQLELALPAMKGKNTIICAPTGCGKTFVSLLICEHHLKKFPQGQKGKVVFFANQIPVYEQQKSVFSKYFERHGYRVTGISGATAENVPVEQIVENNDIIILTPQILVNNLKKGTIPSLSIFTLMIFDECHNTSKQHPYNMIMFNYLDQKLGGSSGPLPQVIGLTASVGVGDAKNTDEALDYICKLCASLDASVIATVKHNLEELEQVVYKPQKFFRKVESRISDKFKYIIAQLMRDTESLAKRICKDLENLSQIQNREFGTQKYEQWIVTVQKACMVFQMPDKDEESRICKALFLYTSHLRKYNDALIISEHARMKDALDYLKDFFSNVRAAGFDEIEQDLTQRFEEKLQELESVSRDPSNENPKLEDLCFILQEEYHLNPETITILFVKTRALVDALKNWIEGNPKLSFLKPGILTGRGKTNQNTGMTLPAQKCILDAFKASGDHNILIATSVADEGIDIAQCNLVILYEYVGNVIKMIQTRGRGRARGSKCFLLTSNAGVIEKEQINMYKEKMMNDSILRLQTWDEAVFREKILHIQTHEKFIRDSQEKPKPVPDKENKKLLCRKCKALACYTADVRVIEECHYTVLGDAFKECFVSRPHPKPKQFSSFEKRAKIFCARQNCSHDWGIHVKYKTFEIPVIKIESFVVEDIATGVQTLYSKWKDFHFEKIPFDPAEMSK
Set-up: K half: unit not given here. Conditions: 5'-OH.

Data set [2] addresses T1, RIG-I (full length). Conditions: Km,RNA per estimated poly I:C strand, ATPase assay at 5 mM ATP.
Data set [3] concerns the target T1, RIG-I (full length). Kind of data set: Km,RNA, ATPase assay at 5 mM ATP; SD 0.40. Particulars: tags: pET-SUMO (His-SUMO vector, Ni-NTA purified), E. coli Rosetta II(DE3); hairpin, 8 bp, UUCG tetraloop, blunt end. Here is the method:
(§1) ATPase activity of RIG-I was measured with the NADH-coupled ATPase assay adapted from previously described protocols (Luo et al., 2011, Cell 147:409-422). Experiments were set up in 50 μl reaction volumes in 96 well format using Corning clear half-area flat bottom plates (#3695). Each 50 μl reaction contained 10 μl of 5×NADH enzyme buffer (1 mM NADH, 100 U of lactate dehydrogenase/mL, 500 U/mL of pyruvate kinase/mL, and 2.5 mM phosphoenolpyruvate), 5-10 nM of RIG-I, 5 μl of varying amounts of either RNA or ATP, and a remaining volume of 25 mM 3-(N-morpholino)propanesulfonic acid (MOPS) pH 7.4, 150 mM KCl, 2 mM DTT, and 0.1% Triton X-100. The rate of ATP hydrolysis was indirectly determined by monitoring the loss of NADH by reading the absorbance at 340 nm using a Biotek Synergy H1 plate reader.
(§2) To more precisely define the minimal duplex length for enzymatic activation of RIG-I, the steady-state kinetic parameters for RIG-I activation by RNA hairpins and double-stranded duplexes ranging in size from 8 to 30 base pairs, was measured with and without a 5′triphosphate (RNAs listed in Table 2). […]

Data set [4] addresses T1, RIG-I (full length). Kind of data set: Km,RNA, ATPase assay at 5 mM ATP; SD 1.3. Conditions: tags: pET-SUMO (His-SUMO vector, Ni-NTA purified), E. coli Rosetta II(DE3); palindromic blunt duplex. Here is the method: as §1, §2
For data set [5], the target named is T1, RIG-I (full length). Kind of data set: Km,RNA, ATPase assay at 5 mM ATP; SD 0.50. Conditions: tags: pET-SUMO (His-SUMO vector, Ni-NTA purified), E. coli Rosetta II(DE3). The procedure: as §1, §2
Data set [6] deals with T1, RIG-I (full length). In words: Km,RNA, ATPase assay at 5 mM ATP; SD 1.0. Conditions: tags: pET-SUMO (His-SUMO vector, Ni-NTA purified), E. coli Rosetta II(DE3). The procedure: as §1
To more precisely define the minimal duplex length for enzymatic activation of RIG-I, the steady-state kinetic parameters for RIG-I activation by RNA hairpins and double-stranded duplexes ranging in size from 8 to 30 base pairs, was measured with and without a 5′triphosphate (RNAs listed in Table 2). In order to evaluate the respective roles of ATP and RNA in activation of the RIG-I:RNA complex, the Michaelis constant for ATP (K_{m,ATP}) at saturating RNA (500 nM) and the Michaelis constant for RNA (K_{m,RNA}) at saturating ATP (5 mM) was measured for each RNA construct (kcat, K_{m,ATP} and K_{m,RNA} summary in Table 4).

In data set [7] the target is T1, RIG-I (full length). Kind of data set: Km,RNA, ATPase assay at 5 mM ATP; SD 1.1. Conditions: tags: pET-SUMO (His-SUMO vector, Ni-NTA purified), E. coli Rosetta II(DE3); palindromic blunt duplex. Here is the method: as §1, §2
Data set [8] concerns the target T1, RIG-I (full length). In words: Km,RNA, ATPase assay at 5 mM ATP; SD 3.4. Particulars: tags: pET-SUMO (His-SUMO vector, Ni-NTA purified), E. coli Rosetta II(DE3); palindromic blunt duplex. The procedure: as §1, §2
Data set [9] has as its target T1, RIG-I (full length). Kind of data set: Km,RNA, ATPase assay at 5 mM ATP; SD 15. Particulars: tags: pET-SUMO (His-SUMO vector, Ni-NTA purified), E. coli Rosetta II(DE3); palindromic blunt duplex. Here is the method:
as §1, §2

Data set [10] concerns the target T1, RIG-I (full length). Kind of data set: Km,RNA (apparent binding constant), ATPase assay at 5 mM ATP, 5 nM RIG-I, MOPS pH 7.4, 150 mM KCl; SD 0.20. Conditions: tags: pET-SUMO (His-SUMO vector, Ni-NTA purified), E. coli Rosetta II(DE3); palindromic blunt duplex. The procedure:
as §1, §2

Data set [11] deals with T1, RIG-I (full length). Kind of data set: Km,RNA, ATPase assay at 5 mM ATP; SD 0.20. Particulars: tags: pET-SUMO (His-SUMO vector, Ni-NTA purified), E. coli Rosetta II(DE3); palindromic blunt duplex. The procedure: as §1, §2
Data set [12] addresses T1, RIG-I (full length). Kind of data set: Km,RNA, ATPase assay at 5 mM ATP; SD 1.5. Conditions: tags: pET-SUMO (His-SUMO vector, Ni-NTA purified), E. coli Rosetta II(DE3); palindromic blunt duplex. Here is the method: as §1, §2
Data set [13] has as its target T1, RIG-I (full length). Kind of data set: Km,RNA, ATPase assay at 5 mM ATP; SD 0.10. Particulars: tags: pET-SUMO (His-SUMO vector, Ni-NTA purified), E. coli Rosetta II(DE3); palindromic blunt duplex. The procedure: as §1, §2

LMW poly I:C: the activity with RIG-I (full length) [1] (ATPase kcat, Km,ATP 690 uM) turned out to be 4.9 s⁻¹. Moreover, the K half with RIG-I (full length) [1] (Km,RNA, ATPase assay at 5 mM ATP, SD 1.1) amounted to 2.4.

For the molecule poly I:C fraction A1 (~500 bp), the K half in the data set with RIG-I (full length) [2] was 20 nM.

Take poly I:C fraction A7 (~25 bp): in the data set with RIG-I (full length) [2], the K half is 20 nM.

Take GGCGCGGCUUCGGCCGCGCC (ssRNA, 5'-triphosphate) [5'ppp8L]: in the data set with RIG-I (full length) [3], the “apparent K (half saturation)” value worked out at 5.16 nM.

B1: GC14 (dsRNA)
RNA 1: GCGCGCGCGCGCGC
RNA 2: GCGCGCGCGCGCGC
modifications: 5'-OH
For B1, the “apparent K (half saturation)” value with RIG-I (full length) [4] is 23.2 nM.

Take GGACGUACGUUUCGACGUACGUCC (ssRNA, 5'-triphosphate) [5'ppp10L]: the “apparent K (half saturation)” value in the data set with RIG-I (full length) [5] (hairpin, 10 bp, UUCG tetraloop, blunt end) is 4.46 nM.

In the case of GGAUCGAUCGAUCGAUCGGCUUCGGCCGAUCGAUCGAUCGAUCC (ssRNA, 5'-triphosphate) [5'ppp20L], the “apparent K (half saturation)” value with RIG-I (full length) [5] was 10.1 nM.

B2: 5'pppGC22 (dsRNA)
RNA 1: GGCGCGCGCGCGCGCGCGCGCC
RNA 2: GGCGCGCGCGCGCGCGCGCGCC
modifications: 5'-triphosphate
Take B2: in the data set with RIG-I (full length) [6] (palindromic blunt duplex, two 5'ppp ends), the “apparent K (half saturation)” value is 3.58 nM.

B3: GC22 (dsRNA)
RNA 1: GCGCGCGCGCGCGCGCGCGCGC
RNA 2: GCGCGCGCGCGCGCGCGCGCGC
modifications: 5'-OH
Take B3: the “apparent K (half saturation)” value with RIG-I (full length) [7] was found to be 27.3 nM.

B4: GC18 (dsRNA)
RNA 1: GCGCGCGCGCGCGCGCGC
RNA 2: GCGCGCGCGCGCGCGCGC
modifications: 5'-OH
Regarding B4, the “apparent K (half saturation)” value with RIG-I (full length) [8] stood at 26.7 nM.

B5: GC8 (dsRNA)
RNA 1: GCGCGCGC
RNA 2: GCGCGCGC
modifications: 5'-OH
Regarding B5, in the data set with RIG-I (full length) [9], the “apparent K (half saturation)” value worked out at 91.4 nM.

B6: 5'pppGC10 (dsRNA)
RNA 1: GGCGCGCGCC
RNA 2: GGCGCGCGCC
modifications: 5'-triphosphate
For the molecule B6, the “apparent K (half saturation)” value in the data set with RIG-I (full length) [10] was 1.16 nM.

B7: 5'pppGC12 (dsRNA)
RNA 1: GGCGCGCGCGCC
RNA 2: GGCGCGCGCGCC
modifications: 5'-triphosphate
On to B7, for which the “apparent K (half saturation)” value with RIG-I (full length) [11] amounted to 2.33 nM.

B8: GC12 (dsRNA)
RNA 1: GCGCGCGCGCGC
RNA 2: GCGCGCGCGCGC
modifications: 5'-OH
Regarding B8, the “apparent K (half saturation)” value with RIG-I (full length) [6] (palindromic blunt duplex) was determined as 13.1 nM.

B9: 5'ppp30L (ssRNA)
RNA: GGAUCGAUCGAUCGAUCGGCAUCGAUCGGCUUCGGCCGAUCGAUGCCGAUCGAUCGAUCGAUCC
modifications: 5'-triphosphate
B9: the “apparent K (half saturation)” value in the data set with RIG-I (full length) [6] (hairpin, 30 bp, UUCG tetraloop, blunt end) came to 10.8 nM.

B10: GC10 (dsRNA)
RNA 1: GCGCGCGCGC
RNA 2: GCGCGCGCGC
modifications: 5'-OH
Consider B10, for which the “apparent K (half saturation)” value in the data set with RIG-I (full length) [12] stood at 24.4 nM.

B11: 5'pppCM12 (dsRNA)
RNA 1: GGACGUACGUCC
RNA 2: GGACGUACGUCC
modifications: 5'-triphosphate
Regarding B11, the “apparent K (half saturation)” value with RIG-I (full length) [13] came out at 2.62 nM.
